{"source": "patent US20060275822", "proteins": {"B1": {"name": "active caspase 3 (CPP32, MBL) (protein)", "chain": "SGISLDNSYKMDYPEMGLCIIINNKNFHKSTGMTSRSGTDVDAANLRETFRNLKYEVRNKNDLTREEIVELMRDVSKEDHSKRSSFVCVLLSHGEEGIIFGTNGPVDLKKITNFFRGDRCRSLTGKPKLFIIQACRGTELDCGIETDSGVDDDMACHKIPVEADFLYAYSTAPGYYSWRNSKDGSWFIQSLCAMLKQYADKLEFMHILTRVNRKVATEFESFSFDATFHAKKQIPCIVSMLTKELYFYH"}}, "molecular_target": "W-SCAT protein (Venus - caspase 3 substrate site - Venus, expressed from pRSETB/W-SCAT in Escherichia coli)", "data": [{"protein": "B1", "values": [{"measurement": "Fluorescent anisotropy (mA) of W-SCAT after 2 hours at 37 C with 1 unit of active caspase 3, measured with Beacon (control without casp3: 225.8)", "value": 276, "unit": "mA"}]}]}
